This experiment has as its target RBD-His (近岸生物货号:DRA42) (SARS-CoV-2) (UniProt P0DTC2).

In the case of “hACE2-Fc融合蛋白 (人ACE2胞外区(ECD)与人IgG1的Fc片段的融合蛋白) (Fc fusion)”, the 亲和力 came to 0.54 nM.

These data come from patent publication CN114057887A.
